Data as given in patent US20240352128A1.
pEC50: −log10 of the molar value.

What was measured:
CD16b (human) = CD16b (human) (UniProt O75015); assay: FACS
CD16a (human) = CD16a (human) (UniProt P08637); assay: FACS
Chain of CD16a (human) (P08637 17-254): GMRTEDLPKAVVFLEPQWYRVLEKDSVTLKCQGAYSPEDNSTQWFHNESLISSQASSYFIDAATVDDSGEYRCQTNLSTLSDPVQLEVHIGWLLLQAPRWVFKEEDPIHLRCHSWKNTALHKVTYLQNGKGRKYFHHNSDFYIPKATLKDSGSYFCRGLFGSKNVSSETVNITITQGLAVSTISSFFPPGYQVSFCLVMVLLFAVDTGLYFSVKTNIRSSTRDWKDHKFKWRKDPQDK

Chain of CD16b (human) (O75015 17-200): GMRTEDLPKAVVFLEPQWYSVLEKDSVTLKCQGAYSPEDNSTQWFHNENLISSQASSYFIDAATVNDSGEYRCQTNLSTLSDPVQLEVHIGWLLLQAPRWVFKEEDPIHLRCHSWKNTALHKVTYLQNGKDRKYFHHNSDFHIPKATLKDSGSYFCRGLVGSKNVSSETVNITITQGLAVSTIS

pEC50 (CD16b (human)) | pEC50 (CD16a (human)) | Substance
3.40 |  | CD16A-mIgG1
2.84 | 2.71 | mouse IgG
